Experimental data published in patent US20080292640A1.

Target: IL-1 receptor (human) (UniProt P14778)
Experiment: cell-based or functional assay

Chain of UniProt P14778 (P14778 18-569): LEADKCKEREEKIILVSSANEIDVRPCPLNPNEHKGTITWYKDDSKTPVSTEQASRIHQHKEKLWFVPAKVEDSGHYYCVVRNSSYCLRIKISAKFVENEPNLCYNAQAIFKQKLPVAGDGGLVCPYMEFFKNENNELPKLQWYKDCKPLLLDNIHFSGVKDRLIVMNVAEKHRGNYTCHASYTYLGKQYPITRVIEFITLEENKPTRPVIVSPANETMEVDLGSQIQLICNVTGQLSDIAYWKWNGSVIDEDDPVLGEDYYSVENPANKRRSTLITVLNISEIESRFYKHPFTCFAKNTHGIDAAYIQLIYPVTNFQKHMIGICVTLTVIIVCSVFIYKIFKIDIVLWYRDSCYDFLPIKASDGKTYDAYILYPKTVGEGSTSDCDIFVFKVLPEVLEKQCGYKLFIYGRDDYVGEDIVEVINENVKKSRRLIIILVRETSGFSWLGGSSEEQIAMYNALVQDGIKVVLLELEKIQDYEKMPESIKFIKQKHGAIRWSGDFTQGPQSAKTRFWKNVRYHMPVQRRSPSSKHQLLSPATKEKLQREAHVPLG

IC50, inhibition of IL-1β induced production of IL-8 in human whole blood (100 pM rhIL-1β): 53.4 pM
Substance: Kineret® (anakinra) (from UniProt P18510 26-177) (ligand)
